Data as given in IntAct's records for PubMed 22518841.

B1: Complement factor H-related protein 4 (Homo sapiens), Q92496-3 (parent)
chain: MLLLINVILTLWVSCANGQEVKPCDFPEIQHGGLYYKSLRRLYFPAAAGQSYSYYCDQNFVTPSGSYWDYIHCTQDGWSPTVPCLRTCSKSDIEIENGFISESSSIYILNKEIQYKCKPGYATADGNSSGSITCLQNGWSAQPICIKFCDMPVFENSRAKSNGMRFKLHDTLDYECYDGYEISYGNTTGSIVCGEDGWSHFPTCYNSSEKCGPPPPISNGDTTSFLLKVYVPQSRVEYQCQSYYELQGSNYVTCSNGEWSEPPRCIHPCIITEENMNKNNIQLKGKSDIKYYAKTGDTIEFMCKLGYNANTSVLSFQAVCREGIVEYPRCE

Key:
[1] = variants of: B1; details: with co3_human C3, P01024
co3_human C3, P01024, sequence (P01024 whole entry): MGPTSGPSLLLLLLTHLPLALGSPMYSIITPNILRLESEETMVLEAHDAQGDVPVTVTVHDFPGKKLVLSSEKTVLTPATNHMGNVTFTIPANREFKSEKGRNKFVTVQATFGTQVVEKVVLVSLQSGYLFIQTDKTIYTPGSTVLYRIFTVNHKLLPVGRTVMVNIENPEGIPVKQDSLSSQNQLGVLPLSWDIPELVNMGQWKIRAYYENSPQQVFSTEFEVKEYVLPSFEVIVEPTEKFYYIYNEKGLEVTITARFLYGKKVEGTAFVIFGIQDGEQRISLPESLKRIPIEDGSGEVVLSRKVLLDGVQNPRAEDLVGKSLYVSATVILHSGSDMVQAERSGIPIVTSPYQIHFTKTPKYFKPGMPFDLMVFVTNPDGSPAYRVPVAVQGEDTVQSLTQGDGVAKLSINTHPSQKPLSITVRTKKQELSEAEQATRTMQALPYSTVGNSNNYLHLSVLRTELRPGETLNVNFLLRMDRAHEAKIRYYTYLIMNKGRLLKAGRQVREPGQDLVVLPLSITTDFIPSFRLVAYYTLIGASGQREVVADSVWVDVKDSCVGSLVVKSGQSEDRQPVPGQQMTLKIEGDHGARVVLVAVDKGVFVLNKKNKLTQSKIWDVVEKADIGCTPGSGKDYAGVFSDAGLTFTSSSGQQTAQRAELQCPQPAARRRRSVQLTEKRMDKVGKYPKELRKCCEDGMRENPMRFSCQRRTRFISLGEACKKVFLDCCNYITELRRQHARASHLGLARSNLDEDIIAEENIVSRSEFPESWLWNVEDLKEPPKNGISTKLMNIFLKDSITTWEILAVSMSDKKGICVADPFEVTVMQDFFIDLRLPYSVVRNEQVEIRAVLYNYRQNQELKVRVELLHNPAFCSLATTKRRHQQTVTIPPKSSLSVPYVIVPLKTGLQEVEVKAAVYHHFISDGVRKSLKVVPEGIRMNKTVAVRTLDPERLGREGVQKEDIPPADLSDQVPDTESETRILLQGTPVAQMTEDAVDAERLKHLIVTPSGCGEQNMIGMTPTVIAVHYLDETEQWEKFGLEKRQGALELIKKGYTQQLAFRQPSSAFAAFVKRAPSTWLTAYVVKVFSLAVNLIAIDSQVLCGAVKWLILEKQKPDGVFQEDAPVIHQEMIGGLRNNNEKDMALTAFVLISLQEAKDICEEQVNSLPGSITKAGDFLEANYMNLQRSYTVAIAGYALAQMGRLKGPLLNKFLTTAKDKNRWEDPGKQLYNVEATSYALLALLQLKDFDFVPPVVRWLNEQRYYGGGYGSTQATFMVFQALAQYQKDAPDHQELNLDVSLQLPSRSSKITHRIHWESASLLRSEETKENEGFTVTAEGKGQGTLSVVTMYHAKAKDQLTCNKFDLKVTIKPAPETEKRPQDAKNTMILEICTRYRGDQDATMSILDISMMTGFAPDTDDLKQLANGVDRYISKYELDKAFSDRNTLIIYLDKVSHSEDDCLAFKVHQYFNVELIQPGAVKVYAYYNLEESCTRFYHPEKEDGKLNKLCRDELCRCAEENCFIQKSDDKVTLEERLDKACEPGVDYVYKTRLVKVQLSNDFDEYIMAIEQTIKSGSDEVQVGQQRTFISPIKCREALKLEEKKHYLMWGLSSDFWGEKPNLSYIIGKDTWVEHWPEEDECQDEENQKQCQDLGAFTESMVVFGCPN

[2] = variants of: B1; details: with cfab_human CFB
[3] = variants of: B1; details: with prop_human CFP

Variant	effect of a mutation on the interaction [1]	effect of a mutation on the interaction [2]	effect of a mutation on the interaction [3]
D221G	decreasing interaction strength	decreasing interaction strength	decreasing interaction strength
D221G;K290A	disrupting interaction strength	disrupting interaction strength	disrupting interaction strength
